To fix the notation:
B1: muskelin CTLH-CRA domain (205–735 Δ248–625) [rat] / Twa1 CTLH-CRA domain (58-190), wild type [mouse] (parent complex)
chain 1: EHPMLTDMHDKLVLKGDFDACEELIEKAVNDGLFNQYISQQEYPSKDYLLRHCKYLIRKHRFEEKAQMDPLSALKYLQNDLYITVDHSDPEETKEFQLLASALFKSGSDFTALGFSDVDHTYAQRTQLFDTLVNFFPDSMTPPKGNLVDLITL
chain 2: SVDLETLDERIKIREMILKGQIQEAIALINSLHPELLDTNRYLYFHLQQQHLIELIRQRETEAALEFAQTQLAEQGEESRECLTEMERTLALLAFDSPEESPFGDLLHMMQRQKVWSEVNQAVLDYENRESTP

In the experiment the parent is B1. Briefly: ITC; 160 µM muskelin + 16 µM Twa1 mutants; read off a plot.
Consider chain 2 A68G, chain 2 Q69R, chain 2 A73Q, chain 2 L83K, chain 2 E87K, chain 2 L90F, chain 2 F95Y, chain 2 F103V, for which the dG is roughly -8.8 kcal/mol.

Values taken from publication PMC13061415 (2026).
